# Source: patent US20080166370A1, “Immunogenic Compositions Comprising Multiple Gonococcal Antigens” (CHIRON SRL, priority 2003, published 2008)
# Key:
# [1] = test system: complement cascade; assay: C3 binding assay; details: FIG. 10
# [2] = test system: ME-180 human cervical epithelial cells; assay: Immunofluorescence microscopy of purified OmpA binding to epithelial cells; type: cell-based; details: 1 mg/ml purified OmpA vs PBS control (FIG. 19)
# Protocol: Monolayers of the ME-180 cells were treated with PBS (control) or with 1 mg/ml purified OmpA, labeled using polyclonal mouse antiserum against recombinant Ng OmpA-His, followed by anti-mouse Alexa Fluor 488 conjugated antibodies. The results are in FIG. 19.
# [3] = target: T1, C4b binding protein (C4bp) (Homo sapiens, UniProt P04003); assay: Dot blot ligand overlay analysis of C4bp binding; details: C4bp 10 mg/ml; OmpA from 0.1 mg to 4 mg (FIG. 23)
# T1 sequence (P04003 49-597): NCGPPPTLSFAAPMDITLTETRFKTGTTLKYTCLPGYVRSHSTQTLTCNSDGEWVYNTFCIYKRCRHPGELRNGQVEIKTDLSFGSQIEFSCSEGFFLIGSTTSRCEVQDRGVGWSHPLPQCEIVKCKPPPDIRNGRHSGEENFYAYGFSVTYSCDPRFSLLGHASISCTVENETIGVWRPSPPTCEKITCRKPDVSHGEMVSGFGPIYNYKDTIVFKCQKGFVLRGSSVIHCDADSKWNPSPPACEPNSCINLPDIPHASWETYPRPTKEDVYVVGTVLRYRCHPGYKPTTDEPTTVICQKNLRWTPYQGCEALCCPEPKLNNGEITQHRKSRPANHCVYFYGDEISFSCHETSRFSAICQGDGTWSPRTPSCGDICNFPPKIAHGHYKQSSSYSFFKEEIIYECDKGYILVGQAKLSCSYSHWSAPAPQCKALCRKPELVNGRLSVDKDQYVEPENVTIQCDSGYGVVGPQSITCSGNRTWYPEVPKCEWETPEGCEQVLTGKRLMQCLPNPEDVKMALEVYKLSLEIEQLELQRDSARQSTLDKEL
# [4] = target: T2, C4b binding protein (C4bp) (Homo sapiens, UniProt P04003); assay: ELISA for the interaction of C4bp with immobilized OmpA; details: OmpA immobilized from 0.15 mg to 20 mg; 10% NHS as source of C4bp (FIG. 24)
# T2 construct: incubated with 10% NHS as source of C4bp; from tissue; host or cells: 10% NHS (serum)
# T2 sequence (P04003 49-597): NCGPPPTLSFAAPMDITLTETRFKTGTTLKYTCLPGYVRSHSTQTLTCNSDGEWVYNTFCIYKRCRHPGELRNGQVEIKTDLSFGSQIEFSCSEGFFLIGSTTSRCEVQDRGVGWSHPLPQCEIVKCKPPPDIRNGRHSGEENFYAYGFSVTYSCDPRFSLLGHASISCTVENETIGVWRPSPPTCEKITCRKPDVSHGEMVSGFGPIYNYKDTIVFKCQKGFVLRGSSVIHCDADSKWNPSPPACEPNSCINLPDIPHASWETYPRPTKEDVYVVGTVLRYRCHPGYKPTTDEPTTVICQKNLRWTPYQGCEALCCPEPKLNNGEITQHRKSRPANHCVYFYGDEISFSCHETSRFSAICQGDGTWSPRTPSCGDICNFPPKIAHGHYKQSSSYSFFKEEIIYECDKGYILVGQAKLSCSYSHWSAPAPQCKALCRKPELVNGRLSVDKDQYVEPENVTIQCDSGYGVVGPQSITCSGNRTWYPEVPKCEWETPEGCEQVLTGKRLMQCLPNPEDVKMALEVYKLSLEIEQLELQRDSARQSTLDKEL
# T2 sequence (P20851 18-252 partner): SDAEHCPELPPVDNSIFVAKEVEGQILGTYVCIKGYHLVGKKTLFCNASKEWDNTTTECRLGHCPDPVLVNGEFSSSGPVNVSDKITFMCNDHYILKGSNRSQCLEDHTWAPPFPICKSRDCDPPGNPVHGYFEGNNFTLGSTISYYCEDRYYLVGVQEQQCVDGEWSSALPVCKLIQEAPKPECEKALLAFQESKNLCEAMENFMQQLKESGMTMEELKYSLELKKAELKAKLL
# Protocol: It is known that some antigens contribute to serum resistance by binding to complement regulatory protein C4b binding protein (C4bp), leading to a decrease in serum killing by complement attack. […] In further experiments, purified OmpA and three negative control proteins were immobilized in the wells of a microtiter plate at different concentrations (from 0.15 mg to 20 mg). The wells were blocked with 5% skimmed milk in PBS and then incubated with 10% NHS as source of C4bp.
Molecule,elicitation of complement-activating antibodies [1],binding to ME-180 cells [2],C4bp binding (dot blot) [3],bound C4bp (ELISA) [4]
"App: gonococcal App autotransporter protein, SEQ ID 7, related to meningococcal adhesion penetration protein (protein, listed as Neisseria gonorrhoeae) MKTTDKRTTETHRKAPKTGRIRFSPAYLAICLSFGILPQARAGHTYFGINYQYYRDFAENKGKFAVGAKDIEVYNKKGELVGKSMTKAPMIDFSVVSRNGVAALAGDQYIVSVAHNGGYNNVDFGAEGSNPDQHRFSYQIVKRNNYKAGTNGHPYGGDYHMPRLHKFVTDAEPVEMTSYMDGWKYADLNKYPDRVRIGAGRQYWRSDEDEPNNRESSYHIASAYSWLVGGNTFAQNGSGGGTVNLGSEKIKHSPYGFLPTGGSFGDSGSPMFIYDAQKQKWLINGVLQTGNPYIGKSNGFQLVRKDWFYDEIFAGDTHSVFYEPHQNGKYFFNDNNNGAGKIDAKHKHYSLPYRLKTRTVQLFNVSLSETAREPVYHAAGGVNSYRPRLNNGENISFIDKGKGELILTSNINQGAGGLYFEGNFTVSPKNNETWQGAGVHISDGSTVTWKVNGVANDRLSKIGKGTLLVQAKGENQGSVSVGDGKVILDQQADDQGKKQAFSEIGLVSGRGTVQLNADNQFNPDKLYFGFRGGRLDLNGHSLSFHRIQNTDEGAMIVNHNQDKESTVTITGNKDITTTGNNNNLDSKKEIAYNGWFGEKDATKTNGGLNLNYPPEEADRTLLLSGGTNLNGNITQTNGKLFFSGRPTPHAYNHLGSGWSKMEGIPQGEIVWDNDWIDRTFKAENFHIQGGQAVVSRNVAKVEGDWHLSNHAQAVFGVAPHQSHTICTRSDWTGLTSCTEKTITDDKVIASLSKTDVRGNVSLADHAHLNLTGLATFNGNLVQAETRTIRLRANATQNGNLSLVGNAQATFNQATLNGNTSASDNASFNLSNNAVQNGSLTLSDNAKANVSHSALNGNVSLADKAVFHFENSRFTGKISGGKDTALHLKDSEWTLPSGTELGNLNLDNATITLNSAYRHDAAGAQTGSAADAPRRRSRRSLLSVTPPTSAESRFNTLTVNGKLNGQGTFRFMSELFGYRSGKLKLAESSEGTYTLAVNNTGNEPVSLEQLTVVEGKDNTPLSENLNFTLQNEHVDAGAWRYQLIRKDGEFRLHNPVKEQELSDKLGKAGETEAALTAKQAQLAAKQQAEKDNAQSLDALIAAGRNATEKAESVAEPARQAGGENAGIMQAEEEKKRVQADKDTALAKQREAETRPATTAFPRARRARRDLPQPQPQPQPQPQRDLISRYANSGLSEFSATLNSVFAVQDELDRVFAEDRRNAVWTSGIRDTKHYRSQDFRAYRQQTDLRQIGMQKNLGSGRVGILFSHNRTGNTFDDGIGNSARLAHGAVFGQYGIGRFDIGISAGAGFSSGSLSDGIRGKIRRRVLHYGIQARYRAGFGGFGIEPHIGATRYFVQKADYRYENVNIATPGLAFNRYRAGIKADYSFKPAQHISITPYLSLSYTDAASGKVRTRVNTAVLAQDFGKTRSAEWGVNAEIKGFTLSLHAAAAKGPQLEAQHSAGIKLGYRW",able to elicit antibodies which activate the complement cascade,–,–,–
"OmpA: gonococcal OmpA protein, SEQ ID 2; expressed in E. coli with C-terminal His-tag and purified (protein, listed as Neisseria gonorrhoeae, C-terminal His-tag, expressed in E. coli with C-terminal His-tag and purified) MTFFKPSTVVLTASALALSGCVADPVTGQQSPNKSAMYGLGGAAVCGIVGALTHSGKGARNSALACGAIGAGVGGYMDYQEQRLRQNLAGTQIEIQRQGNQIRLVMPESVTFATGSAALGGSAQYALNTAAQTLVQYPDTTLTINGHTDNTGSDAVNNPLSQHRAQAVAYYLQTRGVAASRLTVYGYGSHMPVASNATVEGRAQNRRVEILINPDQRAVNAARHM",–,binds,binding,bound C4bp was detected
